Measured values published in patent US6818221B2, “Adjuvants and processes to induce a specific type of immune response” (Baylor Research Institute, priority 2000, dated 2004).

Tests used:
[1] = tested on: OVA-specific CD4+ T cells; experiment: Clonal expansion of OVA-specific CD4+ T cells in vivo (OT-2 adoptive transfer, flow cytometry); parameters: species or system mice; details: OVA with or without LPS adjuvant; footpad or intraperitoneal; Day 4
Text: OT-2 TCR transgenic mice (strain 426-6), generated by Dr. W. Heath (Walter & Eliza Hall Institute, Melbourne, Australia) and Dr. F. Carbone (Monash University, Melbourne, Australia) were obtained from Dr. J. Kapp (Emory University, Atlanta). OT-1 TCR transgenic mice were purchased from Jackson Laboratory (Bar Harbor, Me.). C57BL/6 mice, B6.PL.THY1^a (B6.PL) mice, and C3H/HeJ mice were purchased from Jackson Laboratory (Bar Harbor, Me.). C3H/HeN mice were purchased from Harlan Sprague Dawley (Indianapolis, Ind.). All mice were kept in microisolator cages in a specific-pathogen free facility. For adoptive transfers, age matched, male C57BL/6 or B6.PL.THY1^a recipients were given 2.5×10^6 of either OT-2 cells or OT-1 TCR transgenic T cells intravenously.
Reconstituted mice (3-5 per group) were injected either intraperitoneally, or in the footpad, with either 2 mg OVA in saline, 2 mg OVA+25 μg E. coli LPS, or 2 mg OVA+25 μg P. gingivalis LPS. Endotoxin activity in saline was measured by LAL QCL-1000 kit, and observed to be below the detection limit. […]
The reconstituted mice were injected with one of the following compositions: soluble endotoxin-free OVA, E. coli LPS alone, P. gingivalis LPS alone, OVA+E. coli LPS, or OVA+P. gingivalis LPS. […] The CD4+ OVA-specific T cell response in either the draining lymph nodes or in the spleen was monitored by flow cytometry (FIG. 2A).

[2] = tested on: OVA-specific CD8+ T cells; experiment: Cytokines produced in CD8+ T-cell cultures (ELISA); assay type: in vivo, mice; details: CD8+ OT-1 cells
Experimental: (§1) Four days after injecting with OVA or OVA+LPS, 2.5×10^5 popliteal lymph node cells (footpad injections) or splenocytes (intraperitoneal injections) were plated in triplicate in 96-well flat bottomed plates (Costar, Cambridge, Mass.) in 200 μl of RPMI complete medium (GIBCO BRL, Grand Island, N.Y., US) supplemented with 5% fetal bovine serum (FBS), together with different concentrations (0-500 μg/mL of OVA, or OVA peptide (SIINFEKL, SEQ ID NO:1) (New England Peptide Incorporated, Fitchburg, Mass.). Proliferative responses were assessed after 72 hours of culture in a humidified atmosphere of 5% CO2 in air. Cultures were pulsed with 1.0 μCi [^3H] thymidine for 12 hours, and incorporation of the radionucleotide was measured by β-scintillation spectroscopy (Pulendran, B., et al. 1999. “Distinct dendritic cell subsets differentially regulate the class of immune response in vivo,” Proc Natl Acad Sci USA 96:1036-1041). For cytokine assays, aliquots of culture supernatants were removed after 72 hours, pooled, and assayed for the presence of IFNγ, IL-2, IL-4, IL-5, IL-10, and IL-13 by ELISA.
(§2) IFNγ, IL-2, IL-10, IL-4, IL-5, IL-6, IL-12, IL-13 and TNFα were quantified by ELISA kits from Pharmingen (San Diego, Calif.) using manufacturer's instructions dated 2000.
We next examined the cytokines produced in CD8+ T-cell cultures by ELISA.

[3] = tested on: OVA-specific CD4+ T cells; experiment: IL-13 production by antigen-specific T cells in restimulated cultures (ELISA); assay type: in vivo, B6.PL.THY1a (B6.PL) mice; details: route not distinguished (intraperitoneally or subcutaneously)
Experimental: B6.PL.THY1^a (B6.PL) mice reconstituted with OT-2 transgenic T cells were immunized with soluble OVA, E. coli LPS alone, P. gingivalis LPS alone, OVA+E. coli LPS, or OVA+P. gingivalis LPS, either subcutaneously in the footpad or intraperitoneally. Four days later, the draining popliteal lymph nodes (subcutaneous route), or spleens (intraperitoneal route) were removed, and single cell suspensions were restimulated with varying concentrations of OVA (0-500 μg/mL) for 72 hours, and pulsed with [^3H] for 12 hours. The cell populations were then assayed for IL-13 with ELISA. The data presented in FIG. 10 are representative of two independent experiments.
Four days after injecting with OVA or OVA+LPS, 2.5×10^5 popliteal lymph node cells (footpad injections) or splenocytes (intraperitoneal injections) were plated in triplicate in 96-well flat bottomed plates (Costar, Cambridge, Mass.) in 200 μl of RPMI complete medium (GIBCO BRL, Grand Island, N.Y., US) supplemented with 5% fetal bovine serum (FBS), together with different concentrations (0-500 μg/mL of OVA, or OVA peptide (SIINFEKL, SEQ ID NO:1) (New England Peptide Incorporated, Fitchburg, Mass.). Proliferative responses were assessed after 72 hours of culture in a humidified atmosphere of 5% CO2 in air. […]

[4] = tested on: OVA-specific CD4+ T cells; experiment: Cytokine production by antigen-specific T-helper cells in restimulated cultures (ELISA); assay type: in vivo, mice; details: CD4+ OT-2 system; culture supernatants after 72 hours OVA restimulation
Experimental: as §1, §2
Cytokine production by antigen-specific T cells was measured by assaying the culture supernatants from the single cell suspensions of the draining lymph nodes described above for IL-2, IFNγ, IL-4, IL-10 and IL-5.

B1: OVA: Chicken OVALBUMIN (Sigma) in PBS, depleted of the endotoxin activity; model soluble protein antigen (protein, UniProt P01012 2-386, looked up)
Ovalbumin: GSIGAASMEFCFDVFKELKVHHANENIFYCPIAIMSALAMVYLGAKDSTRTQINKVVRFDKLPGFGDSIEAQCGTSVNVHSSLRDILNQITKPNDVYSFSLASRLYAEERYPILPEYLQCVKELYRGGLEPINFQTAADQARELINSWVESQTNGIIRNVLQPSSVDSQTAMVLVNAIVFKGLWEKAFKDEDTQAMPFRVTEQESKPVQMMYQIGLFRVASMASEKMKILELPFASGTMSMLVLLPDEVSGLEQLESIINFEKLTEWTSSNVMEERKIKVYLPRMKMEEKYNLTSVLMAMGITDVFSSSANLSGISSAESLKISQAVHAAHAEINEAGREVVGSAEAGVDAASVSEEFRADHPFLFCIKHIATNAVLFFGRCVSP
[1]
  clonal expansion of OVA-specific CD4+ T cells: significant clonal expansion
[2]
  IFNγ production: did not secrete significant levels
  IL-2 production: did not secrete significant levels
  IL-5 production: did not secrete significant levels
  IL-10 production: did not secrete significant levels
[3]
  IL-13 production: little, if any
[4]
  IFNγ production: little, if any
  IL-2 production: little, if any
  IL-4 production: little, if any
  IL-5 production: little, if any
  IL-10 production: little, if any
